Measured values taken from US20100304465.

Molecular target: delta-plasminogen
Sequence (chain, as listed by the source mutant): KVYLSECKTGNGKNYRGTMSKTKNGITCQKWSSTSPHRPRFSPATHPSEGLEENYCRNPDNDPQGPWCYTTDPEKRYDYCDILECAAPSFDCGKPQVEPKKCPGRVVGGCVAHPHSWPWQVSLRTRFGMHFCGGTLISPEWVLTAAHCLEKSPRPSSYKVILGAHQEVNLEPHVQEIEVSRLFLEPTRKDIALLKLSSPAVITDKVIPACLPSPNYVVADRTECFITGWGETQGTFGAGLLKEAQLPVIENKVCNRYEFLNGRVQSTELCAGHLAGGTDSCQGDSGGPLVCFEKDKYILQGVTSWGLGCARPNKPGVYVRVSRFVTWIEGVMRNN

B1: tissue Plasminogen Activator (protein)
chain: SYQVICRDEKTQMIYQQHQSWLRPVLRSNRVEYCWCNSGRAQCHSVPVKSCSEPRCFNGGTCQQALYFSDFVCQCPEGFAGKCCEIDTRATCYEDQGISYRGTWSTAESGAECTNWNSSALAQKPYSGRRPDAIRLGLGNHNYCRNPDRDSKPWCYVFKAGKYSSEFCSTPACSEGNSDCYFGNGSAYRGTHSLTESGASCLPWNSMILIGKVYTAQNPSAQALGLGKHNYCRNPDGDAKPWCHVLKNRRLTWEYCDVPSCSTCGLRQYSQPQFRIKGGLFADIASHPWQAAIFAKHRRSPGERFLCGGILISSCWILSAAHCFQERFPPHHLTVILGRTYRVVPGEEEQKFEVEKYIVHKEFDDDTYDNDIALLQLKSDSSRCAQESSVVRTVCLPPADLQLPDWTECELSGYGKHEALSPFYSERLKEAHVRLYPSSRCTSQHLLNRTVTDNMLCAGDTRSGGPQANLHDACQGDSGGPLVCLNDGRMTLVGIISWGLGCGQKDVPGVYTKVTNYLDWIRDNMRP
**Q.** For B1, which “conversion of one-chain delta-plasminogen into two-chain delta-plasmin (reduced SDS-PAGE)” value is on record?
**A.** delta-plasminogen indeed can be activated by all three plasminogen activators
